Reference: the domain aggregation screens of Martell et al. (2025)

Experiment: soluble fraction after stress (log2 fold change); higher = more stays soluble; pooled small domains, quantitative proteomics
Details: stress: pH 4
How it was run: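 Custom libraries of small protein domains were pooled and measured with high-throughput quantitative proteomics after pH 4 stress. The read-out is the fold change in the amount of each domain that stays soluble after the acid stress, taken as a measure of aggregation propensity. Fold changes are on a log2 scale, and higher values mean more of the domain stayed soluble.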

Sequence | soluble fraction (log2)
HMLDKEDNANAGKTLLERELSRAHLSDVEHRELAQRLHLASEQELYIKIGSGDLSIIQALNRAKEFKDT | -0.8
HMRILGIDPGSVVTGYGVIDKSGNYLRHVLHGEIKPHKGYLLSEVLMDIFSKLSAVIVETNPQSV | 0.146
HMLFYSDLVRLISFAEATLGKNEFETWYMSHHQGMKYTEIAIALGISVRTVEDRIARTKNHFRKI | -1
HMAEATATVTASEMVVRSGPSSSYSVLGSLEKGTVVTVLAASDGIAKISYKGNTGYARIVDMELNSA | 0.37
HMLPKTVTLIDPVSGVAKTVTWVPALTLYSARRKAGLNRVPNTATIDRGGRELTGKRGSTLQPGDVVRW | ≥ 0.43
HMNLVGGKINSLMTTKNVTIQDLSERSGLTVSQIELLLSGDKVPSLAVLIKIARGLGVRVGTFL | -0.156
HMDSFEEGTYRKNQRGFGFVKIENQEDEIFISKENSLNALNGDRVIVEIIEDKDRTKRAEGKIKKILKHE | -0.086
HMSPIPLPVERAIHKLGSDISLARRRRHISQASLAERMGASLSTVRRMEKGDVRVPIHFFARALHVFG | 0.158
HMVLVSNYGEVVRKARERKGLDHGSLAMKISEKKSIITSVESGNMKPNEKLIKKLENFLNINLM | -0.471
HMPEAITLRDLKTYSKQAASGYLDDHQLVLVEKEAHSEDVPEGQVIKQKPGAGASVKPGDKVEVTFSLGPE | 0.22
HMLDPIQEGKKMLNSRLSGFGITPNTRLMNKLLAAYNISSREEFYGRIGAGIEDLSTLREVLLKGT | -0.182
HMDRASGEEEALKEAEDAISRVWEFDGPVELNPQNSYLRRLQHELASRYNVKSVSIGQEPNRRVVYYK | -0.428
HMDWNPVRDITAHQVLAILQATHIRAPTVAAEAKRTLSSIFQFAVATLRADIDPVWPVRNALPKNKT | -0.561
HMSVTVMVLRAAGDIQAGTEITDKHLATVEVGEYGLPEGIINDKDSILGKIALTDIAKGDYFFSQKLG | -1.31
HMVEVTTDEITRPGAMVSGSVTFSDGVKAIWLIDEYGRPGLEPETPGYQPSESDLSEFEKHLRALLQ | -0.648
HMASFASRAEEVMTKLLANGQPRIKEVADAMHLSSRTLQRRLEREGVSFAELLDRLRKRLAHDMLAHS | ≥ 0.43
HMLLAPLRLGAAPDIKAQAPLATILARHNGEMEAKDLWQRFGGEIDAFYLQLKTEVAHGWIVEPEPA | 0.0787
HMVKPQANTIYKEYIKYRANLQNKNEFLSFSEYAKQKHNLEQMSEIMVDANLKEEMLETLKEMS | 0.0548
HMEWTDHLAEELRSLAVEGEHLEIIANKLGISPGSARAKLVNLNIYNDYQLAHIERLEADTLQAK | -0.967
HMQIEQVDYGTFMTMIDDKKIDKVEIKDNQILFIGKDDNKKYKTGIVQDPQLAERLHASGAVFSQDI | -0.158
HMEGVSNLIVSVTRVKVTVDLSQAKVYLSIFPSEQAAFYLNALQQNRFQLKHDLSQLLKNQLRRIPTLQF | -0.0019
HMKISDTITEKILTDNNFSMELAKKIGIQQGSLLSSIRRNRDSRILRLWEAVMFYKEQGYTEEEIFTDY | -0.864
HMLVSFGDHLKRYIYERAGIEEPFGEVPQEIYRDIAVDSFRETYTPKSMNPTSTKLPALVNNWLIQ | -0.388
HMTKYEGLSLDLIIDGVVITHNLKLAKLDMNWLLDRLKENGWDNPKDIFYAYIDTAGNFRFQPKLKASRTR | -0.906
HMYAGTVTQVKNNKVMLEFDGETVNVGDQFFILNSDGKKVAIVEITAAKNKKALANVLKGKAVVDGTTQAK | -0.404
HMQGEASDAQLKAIFAIARKLGITDDFEVHRKASRLAGVPEPEVLPSLKSLTYAQASAVIKALQEELE | -0.0238

Sequence | soluble fraction (log2)
HMEAPPHEALSNREFQVLQLLSQGRSVTQIAHQLTLSANTISTYRARIFDKLGLHNPADLYAYAARHGLM | -0.0709
HMDEGQEHYVKETDLPFYSEADPASSVIFPLVLNQKLIEKERKDDWIRALEPTTGLVGWVLLKSLSPQQLS | -1.59
HMREIRIIAEEGHGRLDAFLAGREELGLSRSRIKGLIEEGQVTLNGAVPKAKQPVSPGDEIVVSVPD | -0.0246
HMRSLAVGNVVSEEGKPSYLLLDSKRTMLFSENSIPSLYLEDGRRVIVNYTLLDEDYQGYDFRIHVNDIDT | 0.22
HMTVLDYNENVLSKVMNAAEINDSDKEAFIAFAKDYNSDDNLYLKKEELETAAGAWNARNVE | -0.552
HMQLGQMIVKLRKEQGLTQETFAKKFNVTRQTVSNWENEKSYPDLHTLVKISDEFHLSLDILLK | 0.272
HMREVSPEDLALMRRIDAWHLEHPFAGARLLRDLLRPEGFQAGRRHIGTLMARMGIEALYRK | -0.255
HMNREEKKALTRRQIIDVATRLFRQHGIHNTDLKTIATEAGVSVVTFYKYFDSKEALIGTIAAEQ | -0.23
HMNYTYTVPEGIRYLRADKALALAFPDHSRTALQRAFDSGLVTLRGVAIKRDQSVTALDTLEFAMPDI | -0.675
HMKIKAKYTTDFGIRIYAPKPGKNYWRISYVDLDGKLRDTTATSEKTALDKSAEIEVLLRNN | -0.232
HMANWRVGQTINALVSDRMPSGGLLLTVGRQSFVTTRDIPVQPGARIMLEVQQVEPKLVLRLVSA | -0.236
HMKEDFPLLEQLRYTGEGADVTGTAEKMESIQALRSAADSGGFRATLGDIQQIPGGGLRFTLSLRGSR | -0.226
HMAAELQALSVRELEVLDQLAGGASNREIAQRLYISENTVRNHVHSILTKLKLQNRTQLVGMT | -0.705
HMTVKRNILQELLKTAFKHPEDFRPSKTFYGETGIGQKRFWALYYGHKAVTQKEYYAVADYLG | 0.202
HMTEPLTKREKEVLLLLPRGLTAKAMASELFLTEATIKSHLAAIFRKFKVVNRTQAIAIAVESKILT | -1.1
HMEVTLEEKLSYVEEYAKVHSHFSFRDLLKKQASKTQIVVTFLAILELMKTGKIQITQEHIFDDIVITAK | -0.649
HMSAPRRGETTAASLNLRAGPATDADILAQLPERTPLRVLQEDGEWLRVETHGNEGFVHRQFVAIPGDEP | -0.347
HMRFSYLNIETRKDISSLINKSEITHSSYNNNEYLYKIKSKKTDDFKDLISLIDEKDLISYSIDS | 0.258
HMFPTLSPEEQRIVDQLAKENDLQANVIALRTALTIPQISALLFSLEMKGMVRLYAGGTYHLI | -0.142
HMANNPISMIKIRQILRLHIQGRSKLQIAAQTGISRNTLKKYLKEFEASKLTYDEISELSDKDLEDLFIK | 0.225
HMEQPPVPSVSITAALGSAVARRLAPHGFQKMPDLVDAYRAGKLAQISGIGGTTLDLIREWLTANARQQ | -0.189
HMSLSVEESYKLLDISPSAGDEEITKKFRLLALKYHPDKNRSKIEWANNIMSRLNQAYSVIMSSRFESNAE | 0.211
HMGKPPNNRIHRAKRDYALNLVKEHYPDFGPTLAAEKLAEHHGFTVSRETLRKWMIEDGIWLSRKQRR | -0.0217
HMKVMTNAELGRIIKEARIARRMTQSEVVGDFITRNMLSQIENGNAAPSMRTLQYLMDVLDIHINIE | -0.751
HMNRPYETLFTGLTTDEASAIVGKLEEYGAADYKIEGDTIKVPAAQEPDLKAKLLLDGYPKS | 0.0842
HMSEIYVDDINRKILYLLSQGIKTKSLLEHIPLSMSGIEKRKKQLKMLFSVEDGKDETLLEMAKEKGF | -1.07

Sequence | soluble fraction (log2)
HMDGYTAVDKAVSDQYYTKENQLYFVSMGNFFSLGAKKIEGADISSFQILTTEYARDLQHLYFNGKV | -0.367
HMVEEVDYGTFMRMIEEKNIGKVEVRAGEIVFTDKDEKQIYKTGAMEDATLTQRLYESGAEFSKDV | -0.507
HMTPAPHESLTDREMEVLKLLAQGLSNQEIADKLFIGVKTVKYHITNIFSKLGVEDRTQAAIYAHKQGLA | -0.185
HMNNTIKFSVDTTNSGKRLDIFLAENIKQFTRSYLKKIISNNQVKLNNLVANSPSIKVKHSDLILINILE | -0.62
HMDLRYKVQYNFIDQGMMTKDELLKFSLNQDDVSKIAVFDNDSKQWKEIYAITEISEKLGIS | -1.57
HMQNPDHLLALAAAAQAAIELGRPDEAEAYYRHLVEVYGVEMASQKPEYLDHSGITNDLRNVAEGFLVG | -1.32
HMEISAIIGNNLQQLRKEQGLSLDQLALKTGVSKAVLSQLENGKANPTINTIWKIATALHVTYSALLEPP | -0.347
HMGQVLEGVFRRKANGKNAFIPDGGGEPILVAERNSAHAMDGDRVKATLLARRKHHVREAQVTEILKRSSK | 0.0841
HMAAVSSHAVKQRIRSLIQAEDPASPLSDEALRLALSALGVEVSRRAVAKYRTSMDIPASSQRKK | 0.238
HMKEEDYEVFMRLINVRGIGPKSALNILGVISGQEMIQAIENDDIKRLKSLPGIGAKTAGQIVLDLKGKFV | -0.705
HMVADLSGVGDKDIIVDQFIYHEVLPKETIYSIVKSFNVTSEDLNKNNPFLRANGLRIGQVIRIPLKI | -0.224
HMGELVIPPLRERTVVDAVAEAERLGFVVQVEPVASSLPEGRVLGQSPEPGTRARKSQVVVLQVSRG | 0.00536
HMLDDESLHFFYKKDGWEYWMKTTTENNYPIQLRKKIGDEKVQEYWNGDKEKKKIGASYFGV | -0.6
HMLRRNQVQSQVIPRENGSYVVELQLRDDVDSILRLELTAATEAMARDLADRFRQDPEGVYTRLLSALY | -1.57
HMDYYASVDQVWRELGLAGPARRALIDDGLFKLSDLRKTSLAAVKELHGMGPNAIRILTTEMKKADLSFR | ≥ 0.43
HMRTQEELVAEVREQMEAMGTIATLYVELYESSEERLVGGVIFEDERHYRFVYEDGLLHYEEEK | -1
HMFLTPLEEARLVIEEIVIPKNIAVDLSPRPSALRKQQHELIAHYQLKSFSVGNERTKRLRILPKVI | -0.46
HMIVIMAKESSPAELEGVKNRIESHPGLRPQVFDGVERIVVGVLGSIPPDLKDEIELLPGVIEVVPISK | -0.211
HMNNDIDRVFAELTVLSQKKGYLVFDDIEKGTEDLSVNEVDWLTNRLLTSGVEIFDDVPDTIK | -1.81
HMSRSLLAALEKLRESHTGSLPASVLSSAQRRSLESFAQTTKSVQMRPSGRGVVFAIINPEVVDKHWRELS | 0.22
HMPSPEVELLEDLLSKTDEAEVEAAFHENQALVNDEFKAMLGSLIQELSKTQEADPEIIARIRFIQKLT | -1.27
HMRTGSSVLVGLVAPVRLGATGAPKVFADGALWEARSAVPLNDGQLVEITGTDGLTVLVKPSA | 0.138
HMTDRINIGDVVTIISKDREDSQIVYMRYHKGKLSILGELILNKTKNDTVDFKGRTYDIATIEKS | -0.228
HMGDGMEVWVNGSPVNLTGKDSFIFVDIFDFIDFDLTASKGRLIVIKVNGEYAEYTRPLHNGDTIEIYWEE | -0.638
